According to patent publication US20230002488A1 (SYSTIMMUNE, published 2023):

T1: human CD19 (human, UniProt P15391 20-291)
T1 sequence (looked up): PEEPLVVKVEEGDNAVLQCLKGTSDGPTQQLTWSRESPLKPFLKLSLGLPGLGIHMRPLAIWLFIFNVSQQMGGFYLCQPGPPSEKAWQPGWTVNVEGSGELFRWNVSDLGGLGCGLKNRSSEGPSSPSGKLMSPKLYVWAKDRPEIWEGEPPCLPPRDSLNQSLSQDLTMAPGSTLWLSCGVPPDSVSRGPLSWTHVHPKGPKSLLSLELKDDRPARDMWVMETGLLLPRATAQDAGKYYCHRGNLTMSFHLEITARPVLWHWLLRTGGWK


How the values were obtained:
human 4-1BB = molecular target: T2, human 4-1BB (human, UniProt Q07011 24-186); assay: BLI (Octet), GNC on AHC sensor, 100 nM antigen as analyte, 1:1 fit
T2 construct: Bought antigen; construct not described

human PD-L1 = molecular target: T3, human PD-L1 (human, UniProt Q9NZQ7 19-238); assay: as above
T3 construct: Bought antigen; construct not described

human ROR1 = human ROR1 (human, UniProt Q01973 30-403, limits assumed); assay: as above
EGFRvIII = EGFRvIII (human, UniProt P00533 25-645, limits assumed); assay: as above
human CD19 [1] = molecular target: T1, human CD19; assay: as above
human EGFR = molecular target: T4, human EGFR (human, UniProt P00533 25-645); assay: BLI (Octet), GNC on AHC sensor, His-tagged human EGFR as analyte, global 1:1 fit
T4 construct: also called huEGFR; His-tagged human EGFR

HER3 on BxPC3 cells = HER3 on BxPC3 cells (human, UniProt P21860 20-1342); assay: cell-based or functional assay
human CD19 [2] = molecular target: T1, human CD19; assay: BLI (Octet), GNC on AHC sensor; strong binding, dissociation too slow to quantify KD
SI-49P7 = molecular target: T5, SI-49P7; assay: BLI (Octet), biotinylated MICA on SA tips, GNC protein 0-100 nM as analyte
T5 construct: Antibody-like penta-GNC protein; NKG2D at D2, 4-1BBL trimer at D4; D1 CD3, D3 PD-L1, D6 CD19; also called αCD3×NKG2D×αPD-L1×41BBL trimer×αCD19
T5 sequence (heavy, as listed by the source): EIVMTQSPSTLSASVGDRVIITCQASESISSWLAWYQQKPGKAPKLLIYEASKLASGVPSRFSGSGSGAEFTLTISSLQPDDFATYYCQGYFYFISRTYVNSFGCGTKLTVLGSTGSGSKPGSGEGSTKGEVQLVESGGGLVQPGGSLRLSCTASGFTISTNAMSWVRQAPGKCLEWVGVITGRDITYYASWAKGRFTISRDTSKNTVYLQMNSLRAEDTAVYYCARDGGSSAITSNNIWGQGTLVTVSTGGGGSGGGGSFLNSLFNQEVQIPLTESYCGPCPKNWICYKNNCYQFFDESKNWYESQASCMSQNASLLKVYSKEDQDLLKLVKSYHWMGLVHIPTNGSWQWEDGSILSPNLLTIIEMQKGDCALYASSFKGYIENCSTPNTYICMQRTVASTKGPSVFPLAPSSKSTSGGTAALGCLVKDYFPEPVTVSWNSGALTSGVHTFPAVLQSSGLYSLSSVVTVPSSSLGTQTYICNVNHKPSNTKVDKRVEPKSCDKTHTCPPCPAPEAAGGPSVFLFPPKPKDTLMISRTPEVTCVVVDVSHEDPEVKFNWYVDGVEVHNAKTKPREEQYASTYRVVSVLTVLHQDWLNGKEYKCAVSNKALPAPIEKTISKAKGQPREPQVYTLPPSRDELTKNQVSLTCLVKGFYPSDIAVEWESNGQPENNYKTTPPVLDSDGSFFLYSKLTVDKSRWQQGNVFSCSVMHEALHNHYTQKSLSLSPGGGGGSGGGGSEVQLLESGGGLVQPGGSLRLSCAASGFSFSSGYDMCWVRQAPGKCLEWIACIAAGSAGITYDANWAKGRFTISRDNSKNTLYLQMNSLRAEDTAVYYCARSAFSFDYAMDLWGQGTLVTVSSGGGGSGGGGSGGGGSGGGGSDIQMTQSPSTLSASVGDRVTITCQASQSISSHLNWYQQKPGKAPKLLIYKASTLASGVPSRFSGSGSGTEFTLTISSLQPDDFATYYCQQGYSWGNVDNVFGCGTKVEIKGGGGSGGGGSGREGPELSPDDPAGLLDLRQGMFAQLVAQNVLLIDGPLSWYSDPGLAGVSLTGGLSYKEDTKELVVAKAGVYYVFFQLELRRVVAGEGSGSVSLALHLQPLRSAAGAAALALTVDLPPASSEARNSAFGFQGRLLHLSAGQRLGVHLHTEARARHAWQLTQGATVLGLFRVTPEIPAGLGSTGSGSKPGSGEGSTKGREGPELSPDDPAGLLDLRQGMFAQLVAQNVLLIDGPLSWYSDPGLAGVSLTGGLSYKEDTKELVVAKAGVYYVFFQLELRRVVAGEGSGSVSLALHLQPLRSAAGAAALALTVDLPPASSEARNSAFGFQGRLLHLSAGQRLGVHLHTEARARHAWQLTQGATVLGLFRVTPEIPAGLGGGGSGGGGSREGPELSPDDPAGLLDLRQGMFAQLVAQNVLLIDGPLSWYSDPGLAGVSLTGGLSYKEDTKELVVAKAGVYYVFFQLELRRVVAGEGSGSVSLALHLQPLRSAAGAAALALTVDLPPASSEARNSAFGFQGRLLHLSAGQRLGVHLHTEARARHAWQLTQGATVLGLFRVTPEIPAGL

Chain of human ROR1 (Q01973 30-403 limits assumed): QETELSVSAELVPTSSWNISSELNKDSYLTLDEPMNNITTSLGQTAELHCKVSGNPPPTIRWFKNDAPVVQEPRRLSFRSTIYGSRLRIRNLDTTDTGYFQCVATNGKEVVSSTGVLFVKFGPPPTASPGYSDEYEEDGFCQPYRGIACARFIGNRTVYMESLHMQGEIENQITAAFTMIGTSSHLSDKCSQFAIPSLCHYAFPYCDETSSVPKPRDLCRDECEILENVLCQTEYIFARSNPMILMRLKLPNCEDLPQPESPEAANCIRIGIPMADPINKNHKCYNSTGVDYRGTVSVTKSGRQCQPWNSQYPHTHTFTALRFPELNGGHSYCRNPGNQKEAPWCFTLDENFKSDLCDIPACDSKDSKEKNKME

Kd (human 4-1BB) [nM]	Kd (human PD-L1) [nM]	Kd (human CD19 [1]) [nM]	Binder	further results
4.03	0.379		SI-35E20 (antibody) chain 1: not shown chain 2: AYDMTQSPSSVSASVGDRVTIKCQASEDIYSFLAWYQQKPGKAPKLLIHSASSLASGVPSRFSGSGSGTDFTLTISSLQPEDFATYYCQQGYGKNNVDNAFGGGTKVEIKRTVAAPSVFIFPPSDEQLKSGTASVVCLLNNFYPREAKVQWKVDNALQSGNSQESVTEQDSKDSTYSLSSTLTLSKADYEKHKVYACEVTHQGLSSPVTKSFNRGEC	Kd (human ROR1): 0.861 nM
18.1	0.421		SI-39E18 (antibody) chain 1: not shown chain 2: DILMTQSPSSMSVSLGDTVSITCHSSQDINSNIGWLQQRPGKSFKGLIYHGTNLDDEVPSRFSGSGSGADYSLTISSLESEDFADYYCVQYAQFPWTFGGGTKLEIKRTVAAPSVFIFPPSDEQLKSGTASVVCLLNNFYPREAKVQWKVDNALQSGNSQESVTEQDSKDSTYSLSSTLTLSKADYEKHKVYACEVTHQGLSSPVTKSFNRGEC	Kd (EGFRvIII): 16.4 nM
8.54	0.731	0.181	SI-38P13 (antibody, human IgG1, kappa) heavy: not shown light: DPVLTQSPSSLSASVGDRVTISCQSSQSVAKNNNLAWFQQKPGQAPKLLIYSASTLAAGVPSRFSGSGSGTDFTLTISSVQPEDFATYYCSARDSGNIQSFGGGTKVEIKRTVAAPSVFIFPPSDEQLKSGTASVVCLLNNFYPREAKVQWKVDNALQSGNSQESVTEQDSKDSTYSLSSTLTLSKADYEKHKVYACEVTHQGLSSPVTKSFNRGECGGGGSGGGGSGGGGSQVTLKESGPGLVQPGQTLRLTCAFSGFSLSTSGMGVGWIRQPPGKGLEWLAHIWWDDDKRYNPALKSRLTISKDTSKNQVYLQMNSLDAEDTAVYYCARMELWSYYFDYWGQGTLVTVSSGGGGSGGGGSGGGGSGGGGSENVLTQSPASLSASPGERVTITCSASSSVSYMHWYQQKPGQAPKLWIYDTSKLASGVPSRFSGSGSGNDHTLTISSMEPEDFATYYCFQGSVYPFTFGQGTKVTVL	
			SI-55P3 (antibody, human IgG1, kappa, Penta-specific: D1 humanized anti-EGFR H1 scFv, D2 CD3, D3 PD-L1, D4 4-1BB, D6 CD19) heavy: not shown light: ENVLTQSPASLSASPGERVTITCSASSSVSYMHWYQQKPGQAPKLWIYDTSKLASGVPSRFSGSGSGNDHTLTISSMEPEDFATYYCFQGSVYPFTFGQGTKVTVLGGGGSGGGGSGGGGSGGGGSQVTLKESGPGLVQPGQTLRLTCAFSGFSLSTSGMGVGWIRQPPGKGLEWLAHIWWDDDKRYNPALKSRLTISKDTSKNQVYLQMNSLDAEDTAVYYCARMELWSYYFDYWGQGTLVTVSSGGGGSGGGGSDPVLTQSPSSLSASVGDRVTISCQSSQSVAKNNNLAWFQQKPGQAPKLLIYSASTLAAGVPSRFSGSGSGTDFTLTISSVQPEDFATYYCSARDSGNIQSFGGGTKVEIKRTVAAPSVFIFPPSDEQLKSGTASVVCLLNNFYPREAKVQWKVDNALQSGNSQESVTEQDSKDSTYSLSSTLTLSKADYEKHKVYACEVTHQGLSSPVTKSFNRGEC	Kd (human EGFR): 18.1 nM
			SI-79P2 (antibody, human IgG1, kappa, Penta-specific: D1 humanized anti-EGFR H4 scFv, D2 CD3, D3 PD-L1, D4 4-1BB, D6 CD19) heavy: not shown light: ENVLTQSPASLSASPGERVTITCSASSSVSYMHWYQQKPGQAPKLWIYDTSKLASGVPSRFSGSGSGNDHTLTISSMEPEDFATYYCFQGSVYPFTFGQGTKVTVLGGGGSGGGGSGGGGSGGGGSQVTLKESGPGLVQPGQTLRLTCAFSGFSLSTSGMGVGWIRQPPGKGLEWLAHIWWDDDKRYNPALKSRLTISKDTSKNQVYLQMNSLDAEDTAVYYCARMELWSYYFDYWGQGTLVTVSSGGGGSGGGGSDPVLTQSPSSLSASVGDRVTISCQSSQSVAKNNNLAWFQQKPGQAPKLLIYSASTLAAGVPSRFSGSGSGTDFTLTISSVQPEDFATYYCSARDSGNIQSFGGGTKVEIKRTVAAPSVFIFPPSDEQLKSGTASVVCLLNNFYPREAKVQWKVDNALQSGNSQESVTEQDSKDSTYSLSSTLTLSKADYEKHKVYACEVTHQGLSSPVTKSFNRGEC	Kd (human EGFR): 4.3 nM
4.91	0.737	6.8	SI-55H11 (antibody, human IgG1, kappa, also called hexa-GNC antibody SI-55H11) heavy: not shown light: ENVLTQSPASLSASPGERVTITCSASSSVSYMHWYQQKPGQAPKLWIYDTSKLASGVPSRFSGSGSGNDHTLTISSMEPEDFATYYCFQGSVYPFTFGQGTKVTVLGGGGSGGGGSGGGGSGGGGSQVTLKESGPGLVQPGQTLSLTCAFSGFSLSTSGMGVGWIRQPPGKGLEWLAHIWWDDDKRYNPALKSRLTISKDTSKNQVYLQMNSLDAEDTAVYYCARMELWSYYFDYWGQGTLVTVSSGGGGSGGGGSDVVMTQSPSTLSASVGDRVTINCQASESISSWLAWYQQKPGKAPKLLIYEASKLASGVPSRFSGSGSGTEFTLTISSLQPDDFATYYCQGYFYFISRTYVNSFGCGTKVEIKRTVAAPSVFIFPPSDEQLKSGTASVVCLLNNFYPREAKVQWKVDNALQSGNSQESVTEQDSKDSTYSLSSTLTLSKADYEKHKVYACEVTHQGLSSPVTKSFNRGECGGGGSGGGGSGGGGSQSALTQPASVSGSPGQSITISCTGTSSDVGGYNFVSWYQQHPGKAPKLMIYDVSDRPSGVSDRFSGSKSGNTASLIISGLQADDEADYYCSSYGSSSTHVIFGGGTKVTVLGGGGSGGGGSGGGGSGGGGSQVQLQESGGGLVKPGGSLSLSCAASGFTFSSYWMSWVRQAPGKGLEWVANINRDGSASYYVDSVKGRFTISRDDAKNSLYLQMNSLRAEDTAVYYCARDRGVGYFDLWGRGTLVTVSS	TDCC EC50 (pM), BxPC3 target cells (HER3 on BxPC3 cells): 0.0939 pM
7.87	0.25		SI-55H12 (antibody, human IgG1, kappa) heavy: not shown light: ENVLTQSPASLSASPGERVTITCSASSSVSYMHWYQQKPGQAPKLWIYDTSKLASGVPSRFSGSGSGNDHTLTISSMEPEDFATYYCFQGSVYPFTFGQGTKVTVLGGGGSGGGGSGGGGSGGGGSQVTLKESGPGLVQPGQTLSLTCAFSGFSLSTSGMGVGWIRQPPGKGLEWLAHIWWDDDKRYNPALKSRLTISKDTSKNQVYLQMNSLDAEDTAVYYCARMELWSYYFDYWGQGTLVTVSSGGGGSGGGGSDVVMTQSPSTLSASVGDRVTINCQASESISSWLAWYQQKPGKAPKLLIYEASKLASGVPSRFSGSGSGTEFTLTISSLQPDDFATYYCQGYFYFISRTYVNSFGGGTKVEIKRTVAAPSVFIFPPSDEQLKSGTASVVCLLNNFYPREAKVQWKVDNALQSGNSQESVTEQDSKDSTYSLSSTLTLSKADYEKHKVYACEVTHQGLSSPVTKSFNRGECGGGGSGGGGSGGGGSQSALTQPASVSGSPGQSITISCTGTSSDVGGYNFVSWYQQHPGKAPKLMIYDVSDRPSGVSDRFSGSKSGNTASLIISGLQADDEADYYCSSYGSSSTHVIFGGGTKVTVLGGGGSGGGGSGGGGSGGGGSQVQLQESGGGLVKPGGSLSLSCAASGFTFSSYWMSWVRQAPGKGLEWVANINRDGSASYYVDSVKGRFTISRDDAKNSLYLQMNSLRAEDTAVYYCARDRGVGYFDLWGRGTLVTVSS	binding result (human CD19 [2]): binds
8.19	0.524	1.48	SI-38E17 (antibody, V domains shown) VH: EVQLVESGGGLVQPGGSLRLSCAASGFTISTNAMSWVRQAPGKGLEWIGVITGRDITYYASWAKGRFTISRDNSKNTLYLQMNSLRAEDTAVYYCARDGGSSAITSNNIWGQGTLVTVSS VL: AIQLTQSPSSLSASVGDRVTITCRASQGISSALAWYQQKPGKAPKLLIYDASSLESGVPSRFSGSGSGTDFTLTISSLQPEDFATYYCQQFNSYPFTFGPGTKVDIK	
4.85	0.195	1.11	SI-38P12 (antibody, human IgG1, kappa) heavy: not shown light: ENVLTQSPASLSASPGERVTITCSASSSVSYMHWYQQKPGQAPKLWIYDTSKLASGVPSRFSGSGSGNDHTLTISSMEPEDFATYYCFQGSVYPFTFGQGTKVTVLGGGGSGGGGSGGGGSGGGGSQVTLKESGPGLVQPGQTLRLTCAFSGFSLSTSGMGVGWIRQPPGKGLEWLAHIWWDDDKRYNPALKSRLTISKDTSKNQVYLQMNSLDAEDTAVYYCARMELWSYYFDYWGQGTLVTVSSGGGGSGGGGSDVVMTQSPSTLSASVGDRVTINCQASESISSWLAWYQQKPGKAPKLLIYEASKLASGVPSRFSGSGSGTEFTLTISSLQPDDFATYYCQGYFYFISRTYVNSFGGGTKVEIKRTVAAPSVFIFPPSDEQLKSGTASVVCLLNNFYPREAKVQWKVDNALQSGNSQESVTEQDSKDSTYSLSSTLTLSKADYEKHKVYACEVTHQGLSSPVTKSFNRGEC	
			biotinylated human MICA (ligand, UniProt Q29983 24-308, looked up, biotinylated (site not stated), Loaded on SA tips as ligand for SI-49P6 and SI-49P7) EPHSLRYNLTVLSWDGSVQSGFLTEVHLDGQPFLRCDRQKCRAKPQGQWAEDVLGNKTWDRETRDLTGNGKDLRMTLAHIKDQKEGLHSLQEIRVCEIHEDNSTRSSQHFYYDGELFLSQNLETKEWTMPQSSRAQTLAMNVRNFLKEDAMKTKTHYHAMHADCLQELRRYLKSGVVLRRTVPPMVNVTRSEASEGNITVTCRASGFYPWNITLSWRQDGVSLSHDTQQWGDVLPDGNGTYQTWVATRICQGEEQRFTCYMEHSGNHSTHPVPSGKVLVLQSHWQ	Kd (SI-49P7): 10.7 nM
